Assay results: article PMC10551642, “Functional plasticity in chromosome–microtubule coupling on the evolutionary time scale” (Life Science Alliance, 2023)

Biological target: the molecule itself
Test: negative stain electron microscopy; Dam1 complex-MT reaction mix adsorbed on glow-discharged grids, washed with 25 mM HEPES pH 7.4, 500 mM NaCl, 1 mM EDTA, stained with 0.7% uranyl formate; rings of the complex around MTs

B1: S. cerevisiae Dam1 complex containing Dad2-FL (DASH^WT) (complex)
chain 1: MMASTSNDEEKLISTTDKYFIEQRNIVLQEINETMNSILNGLNGLNISLESSIAVGREFQSVSDLWKTLYDGLESLSDEAPIDEQPTLSQSKTK
chain 2: MDSIDEQIAIKRKELQSLQKITSLTDGLKIQLTELNEQIKEMGMNADSVAQLMNNWDSIINNISQASLGLLQYAEGDYEIGPWKDSKKKESEQSNETGLEAQENDKNDEDNDEDEDLVPLPETMVRIRVDGNE
chain 3: MEHNLSPLQQEVLDKYKQLSLDLKALDETIKELNYSQHRQQHSQQETVSPDEILQEMRDIEVKIGLVGTLLKGSVYSLILQRKQEQESLGSNSK
chain 4: MENPHEQVQANILSRIIGNVKRLNESVAILNQELVTINNRNKNLEIMGAICDNYHSSVQFNLEATNNKKPPL
chain 5: MSEDKAKLGTTRSATEYRLSIGSAPTSRRSSMGESSSLMKFADQEGLTSSVGEYNENTIQQLLLPKIRELSDSIITLDSNFTRLNFIHESLADLNESLGSLLYGIMSNSWCVEFSQAPHDIQDDLIAIKQLKSLEDEKNNLVMELSNMERGIKRKKDEQGENDLAKASQNKQFNQPLFPSSQVRKYRSYDNRDKRKPSKIGNNLQVENEEDYEDDTSSEASFVLNPTNIGMSKSSQGHVTKTTRLNNNTNSKLRRKSILHTIRNSIASGADLPIENDNVVNLGDLHPNNRISLGSGAARVVNGPVTKNRNSMFSGRAERKPTESRHSVAKKTEKKINTRPPFR
chain 6: MSEQSQLDDSTIDKLIPQIFNEMRSNLNNTTNKFPKSTGGGASDNISANSNSIRSFNSITTQSLLKESESLDKITAMIKNVTAALKNNLPVYVNQVHEVCKSTNSILDSWINIHSQAGYIHKLMSDQTYLKLINDRLHNENVNTNDEDGSTLHNVIALKKKEILDLRQKLENRKGEKDAAPAKPPNQGLNPRYGVQSGRRPVPSAGISNNGRVRKTHVPASKRPSGIPRVTNRWTKPTASSSRKMFR
chain 7: MDSASKEETLEKLDQEITVNLQKIDSNLSFCFHKITQDIIPHVATYSEICERIMDSTEWLGTMFQETGLVNLQANAAAPVGNAPVKSLVSNNVGIFPTSAEEASRQSQTDNGPNEADSAVHVNRDVHSMFNNDSIDDFHTANITSTGQILKLPDSSDEDTGSEAVPSREQTDLTGEGHGGADDEQDESTIQRQSRKRKISLLLQQQYGSSSSMVPSPIVPNKMRKQLAHEEHINNDGDNDDENSNNIESSPLKQGHHHPKGQADDNNEGPDEEESTKEVPKPGTIIHFSTNR
chain 8: MNANKQRQYNQLAHELRELQTNLQETTKQLDIMSKQCNENLVGQLGKVHGSWLIGSYIYYMEQMLGKTQ
chain 9: MTDALEQSVLALEGTVSVLKDSVESLKCANEPSTNLASTMLQTKRVFRLVPEYDVERSKLDLIEEVEPLVRTLGDKLRKSMGRMQRELDTLQQTYELNDLRLKKNISMDDDDALNSPDMGQEYEGRDADDVVMMASSTNEELEELKKLKEKKKQLENKLEILKQK
chain 10: MGESLDRCIDDINRAVDSMSTLYFKPPGIFHNAILQGASNKASIRKDITRLIKDCNHDEAYLLFKVNPEKQSVSRRDGKEGVFDYVIKRDTDMKRNRRLGRPGEKPIIHVPKEVYLNKDRLDLNNKRRRTATTSGGGLNGFIFDTDLIGSSVISNSSSGTFKALSAVFKDDPQIQRLLYALENGSVLMEEESNNQRRKTIFVEDFPTDLILKVMAEVTDLWPLTEFKQDYDQLYHNYEQLSSKLRFIKKEVLLQDDRLKTMSQYHPSSSHDVAKIIRKEKDEIRRLEMEIANLQE
notes: Dad1, S. cerevisiae, subunit of the Dam1 (DASH) complex; Dad2, S. cerevisiae, subunit of the Dam1 (DASH) complex; Dad2-FL; Dad3, S. cerevisiae, subunit of the Dam1 (DASH) complex; Dad4, S. cerevisiae, subunit of the Dam1 (DASH) complex; Dam1, S. cerevisiae, subunit of the Dam1 (DASH) complex; Duo1, S. cerevisiae, subunit of the Dam1 (DASH) complex; Ask1, S. cerevisiae, subunit of the Dam1 (DASH) …
  binding result: binds
